In article PMC4720564 (Chemical communications (Cambridge, England), 2016):

Columns and labels:
[1] = tested on: [C-]#[N+]/C=C\c1c[nH]c2ccccc12; experiment: purified protein; format: biochemical, Fischerella ambigua; details: co-substrate GPP, MgCl2 10 mM, pH 8.0
WelP1 = WelP1 (Hapalosiphon welwitschii, UniProt A0A067YVH5); experiment: LC-MS product formation; format: biochemical; details: co-substrate GPP; MgCl2 5 mM; Tris 50 mM pH 8.0

Compound | Km [1] | kcat [1] | LC-MS product formation (WelP1)
AmbP1 (Fischerella ambigua UTEX 1903) | 15.4 ± 3.2 µM | 6.9 ± 1.2 s⁻¹ | 
[C-]#[N+]/C=C\c1c[nH]c2ccccc12 [(Z)-1, cis-indolyl vinyl isonitrile] |  |  | The enzymatic products derived from WelP1 and FidP1 are perfectly identical to that from AmbP1
